Where a chain is given by its changes, count along the chain named. Several values for one entry are separate records, joined by “and”; a condition that tells them apart may be missing. Identical values can stand only once.
B1: Antibody 11 (antibody, V domains shown)
VH: QVQLQQSGPGLVKPSQTLSLTCAISGDSVSSYNAVWNWIRQSPSRGLEWLGRTYYRSGWYNDYAESVKSRITINPDTSKNQFSLQLNSVTPEDTAVYYCARSGHITVFGVNVDAFDMWGQGTMVTVSS
VL: DIQMTQSPSSLSASVGDRVTITCRTSQSLSSYTHWYQQKPGKAPKLLIYAASSRLSGVPSRFSGSGSGTDFTLTISSLQPEDFATYYCQQSRTFGQGTKVEIK
B2: Antibody 13 (antibody, V domains shown)
VH: B1 VH
VL: B1 VL with T33D

Key:
Assay in all cases: cell-based or functional assay
[1] = molecular target: HA of swine-origin A/Minnesota/11/2010 H3N2 virus (influenza A virus)
[2] = molecular target: HA of ca A/New Caledonia/20/99 (H1N1) (influenza A virus)
[3] = molecular target: HA of ca A/Vietnam/1203/04 (H5N1) (influenza A virus)
HA of virus H1-BS10 = molecular target: HA of virus H1-BS10
[4] = molecular target: HA of ca A/Perth/16/09 (H3N2) (influenza A virus)
[5] = molecular target: HA of A/Hong Kong/8/68 (H3N2) (influenza A virus)
[6] = molecular target: HA of ca A/swine/Missouri/06 (H2N3) (influenza A virus)
[7] = molecular target: HA of ca A/Brit. Columbia/CN-6/04 (H7N3-LP) (influenza A virus)
[8] = molecular target: HA of ca A/chicken/Hong Kong/G9/97 (H9N2) (influenza A virus)
[9] = molecular target: HA of ca A/Japan/57 (H2N2) (influenza A virus)
[10] = molecular target: HA of ca A/Beijing/262/95 (H1N1) (influenza A virus)
[11] = molecular target: HA of A/New Jersey/8/76 (H1N1) (influenza A virus)
[12] = molecular target: HA of ca A/mallard/Alberta/89/85 (H6N2) (influenza A virus)
[13] = molecular target: HA of A/Victoria/3/75 (H3N2) (influenza A virus)
[14] = molecular target: HA of A/Fort Monmouth/1/47 (H1N1) (influenza A virus)
[15] = molecular target: HA of ca A/Sydney/5/97 (H3N2) (influenza A virus)
[16] = molecular target: HA of ca A/Hong Kong/213/03 (H5N1) (influenza A virus)
[17] = molecular target: HA of A/Kawasaki/9/86 (H1N1) (influenza A virus)
[18] = molecular target: HA of A/Wisconsin/67/05 (H3N2) (influenza A virus)
[19] = molecular target: HA of ca A/Texas/36/91 (H1N1) (influenza A virus)
[20] = molecular target: HA of A/Victoria/361/11 (H3N2) (influenza A virus)
[21] = molecular target: HA of ca A/teal/Hong Kong/W312/97 (H6N1) (influenza A virus)
[22] = molecular target: HA of ca A/Panama/2007/99 (H3N2) (influenza A virus)
[23] = molecular target: HA of ca A/Netherlands/219/03 (H7N7) (influenza A virus)

| Binder | Neutralizing activity IC50, swine-origin A/Minnesota/11/2010 [1] | Neutralization IC50, H1-Ncal99 [2] [µg/mL] | Neutralization IC50, H5-VM04 [3] [µg/mL] | Neutralization IC50, H1-BS10 (HA of virus H1-BS10) [µg/mL] | Neutralization IC50, H3-Perth09 [4] [µg/mL] | Neutralization IC50, H3-HK68 [5] [µg/mL] | Neutralization IC50, H2-MO06 [6] [µg/mL] | Neutralization IC50, H7-BC04 [7] [µg/mL] | Neutralization IC50, H9-HK97 [8] [µg/mL] | Neutralization IC50, H2-JP57 [9] [µg/mL] | Neutralization IC50, H1-BJ95 [10] [µg/mL] | Neutralization IC50, H1-NJ76 [11] [µg/mL] | Neutralization IC50, H6-AB85 [12] [µg/mL] | Neutralization IC50, H3-Vic75 [13] [µg/mL] | Neutralization IC50, H1-FM47 [14] [µg/mL] | Neutralization IC50, H3-Syd97 [15] [µg/mL] | Neutralization IC50, H5-HK03 [16] [µg/mL] | Neutralization IC50, H1-Kaw86 [17] [µg/mL] | Neutralization IC50, H3-WI05 [18] [µg/mL] | Neutralization IC50, H1-TX91 [19] [µg/mL] | further results |
| --- | --- | --- | --- | --- | --- | --- | --- | --- | --- | --- | --- | --- | --- | --- | --- | --- | --- | --- | --- | --- | --- |
| B1 | 1.6 µg/mL and 1.5 µg/mL | 0.66 | 0.57 | 1.15 | 0.17 | 0.46 | 0.6 | 0.71 | 0.36 | 0.31 | 1.01 | 0.13 | 0.24 | 0.46 | 0.43 | 1.53 | 0.21 | 0.53 | 1.07 | 0.11 | Neutralization IC50, H3-VC11 [20]: 0.85 µg/mL; Neutralization IC50, H6-HK97 [21]: 0.4 µg/mL; Neutralization IC50, H3-Pa99 [22]: 2.18 µg/mL; Neutralization IC50, H7-NLD03 [23]: 0.94 µg/mL |
| B2 | 1.6 µg/mL and 1.4 µg/mL | 0.77 | 0.56 | 1.23 | 0.28 | 0.44 | 0.57 | 0.96 | 0.29 | 0.47 | 1.86 | 0.12 | 0.29 | 0.43 | 0.5 | 2.18 | 0.17 | 0.41 | 1.19 | 0.09 | Neutralization IC50, H3-VC11 [20]: 1.03 µg/mL; Neutralization IC50, H6-HK97 [21]: 0.55 µg/mL; Neutralization IC50, H3-Pa99 [22]: 2.62 µg/mL; Neutralization IC50, H7-NLD03 [23]: 2.45 µg/mL |

Source: patent US20160257732A1 (published 2016)
